The source of these data is patent US20180016581.

Data set [1] concerns the target T1, GDF11, mature (Homo sapiens) (UniProt O95390).
T1 sequence: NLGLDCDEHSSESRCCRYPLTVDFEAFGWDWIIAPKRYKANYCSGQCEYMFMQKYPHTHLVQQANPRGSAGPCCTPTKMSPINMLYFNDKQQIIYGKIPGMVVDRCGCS
To be noted: TrpdU at each W (n in listing).

In data set [2] the target is GDF8 (myostatin), mature (Homo sapiens) (UniProt O14793). To be noted: TrpdU at each W (n in listing).

Read-outs that look alike come from different tables or passages of the source.

Sequence of GDF8 (myostatin), mature (Homo sapiens) (O14793 267-375): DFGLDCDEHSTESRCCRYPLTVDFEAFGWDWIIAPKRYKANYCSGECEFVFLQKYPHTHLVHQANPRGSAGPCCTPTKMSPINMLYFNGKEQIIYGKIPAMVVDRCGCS

One may read the Kd as the free concentration of one partner at which half of the binding sites on the other are occupied at equilibrium, for simple one-to-one binding. Higher therefore signals lower affinity. In the case of “CTCTGATACGGCCTTAGTGTTAGAGTCCTTTATGAGTCTAGACCACAACA [14583-49_3]”, the equilibrium dissociation constant (Kd) stood at 1110 pM in data set [1] (0.1 uM Z-block, low binding plateau) and 130 pM in data set [2] (0.1 uM Z-block, 1.32E-10 M in p223).

TGTTAGAGTCCTTTATGAGTCTAG [14583-49_29]: the Kd in data set [2] (with Z-block) worked out at 228 pM.

Turning to “CTCTGAACTTCTAATGTCTCTTGCATTTTATCGCATTGATTTCTCCAACA [14583-19_3]”, the Kd in data set [1] (with Z-block) worked out at 420 pM; in data set [2] (with Z-block), 1160 pM.
